Measurements taken from patent US20050037969A1 (ARBOR VITA, published 2005).
Ends that are not written are not given here. * marks the point of attachment. Biotin = O=C1N[C@H]2[C@H](CS[C@H]2CCCCC(=O)*)N1

T1: ConEn PDZ-GST fusion protein (Homo sapiens (Human), UniProt Q969H4 193-287)
T1 construct: The label ConEn is not explained in the excerpts
T1 sequence: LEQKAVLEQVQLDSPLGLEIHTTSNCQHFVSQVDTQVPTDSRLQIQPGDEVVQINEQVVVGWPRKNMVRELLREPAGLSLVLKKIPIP

T2: GST-TAX-IP2 PDZ domain fusion protein (human, UniProt O14908 129-216)
T2 construct: also called TAX-1P2; TAX2; not shown: glutathione S-transferase encoded by vector pGEX-3X (Pharmacia)
T2 chain: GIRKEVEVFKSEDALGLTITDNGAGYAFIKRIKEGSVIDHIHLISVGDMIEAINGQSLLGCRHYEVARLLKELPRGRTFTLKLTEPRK

T3: GST-cytohesin binding protein PDZ domain fusion protein (Homo sapiens (Human), UniProt O60759 74-165)
T3 construct: also called CBP; not shown: glutathione S-transferase encoded by vector pGEX-3X (Pharmacia)
T3 sequence: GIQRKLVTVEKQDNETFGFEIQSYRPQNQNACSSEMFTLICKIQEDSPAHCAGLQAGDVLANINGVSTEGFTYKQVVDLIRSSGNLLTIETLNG

T4: GST-TAX-IP40 PDZ domain fusion protein (human, UniProt Q6B4M5 150-252 (rat entry))
T4 construct: also called TAX40; not shown: glutathione S-transferase encoded by vector pGEX-3X (Pharmacia)
T4 sequence: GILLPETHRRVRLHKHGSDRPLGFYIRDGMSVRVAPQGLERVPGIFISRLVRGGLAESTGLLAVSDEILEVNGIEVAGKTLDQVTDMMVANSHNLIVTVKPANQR

T5: K858 PDZ-GST fusion protein (Homo sapiens (Human), UniProt Q8WWI1 1038-1131)
T5 construct: Order of GST and PDZ part and limits not seen in the excerpts
T5 sequence: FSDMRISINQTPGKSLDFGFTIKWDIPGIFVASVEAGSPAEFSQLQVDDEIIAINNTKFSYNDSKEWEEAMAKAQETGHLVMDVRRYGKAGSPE

T6: GST-RGS12 PDZ domain fusion protein (human, UniProt O14924 17-85)
T6 construct: also called human regulator of G-protein signalling 12; not shown: glutathione S-transferase encoded by vector pGEX-3X (Pharmacia)
T6 sequence: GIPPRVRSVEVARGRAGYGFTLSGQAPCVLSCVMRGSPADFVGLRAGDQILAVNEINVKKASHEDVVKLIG

T7: GST-prIL16 fusion protein (PDZ domains 1-2) (Homo sapiens (Human), UniProt Q14005 1111-1324)
T7 construct: also called putative interleukin 16 precursor; not shown: glutathione S-transferase encoded by vector pGEX-3X (Pharmacia)
T7 sequence: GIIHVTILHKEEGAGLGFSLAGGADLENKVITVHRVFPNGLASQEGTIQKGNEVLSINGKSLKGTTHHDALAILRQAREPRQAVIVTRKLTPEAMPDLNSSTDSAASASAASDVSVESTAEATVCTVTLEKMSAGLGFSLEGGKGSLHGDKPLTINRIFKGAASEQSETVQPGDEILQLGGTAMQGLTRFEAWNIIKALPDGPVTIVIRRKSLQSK

T8: GST-AF6 PDZ domain fusion protein (Homo sapiens (Human), UniProt P55196 1001-1093)
T8 construct: also called af-6 protein; not shown: glutathione S-transferase encoded by vector pGEX-3X (Pharmacia)
T8 sequence: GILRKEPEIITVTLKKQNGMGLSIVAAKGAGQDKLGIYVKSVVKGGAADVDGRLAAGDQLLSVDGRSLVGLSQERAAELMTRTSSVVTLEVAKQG

T9: GST-PDZK1 fusion protein (PDZ domains 2-4) (Homo sapiens, UniProt Q5T2W1 134-457)
T9 construct: not shown: glutathione S-transferase encoded by vector pGEX-3X (Pharmacia)
T9 sequence: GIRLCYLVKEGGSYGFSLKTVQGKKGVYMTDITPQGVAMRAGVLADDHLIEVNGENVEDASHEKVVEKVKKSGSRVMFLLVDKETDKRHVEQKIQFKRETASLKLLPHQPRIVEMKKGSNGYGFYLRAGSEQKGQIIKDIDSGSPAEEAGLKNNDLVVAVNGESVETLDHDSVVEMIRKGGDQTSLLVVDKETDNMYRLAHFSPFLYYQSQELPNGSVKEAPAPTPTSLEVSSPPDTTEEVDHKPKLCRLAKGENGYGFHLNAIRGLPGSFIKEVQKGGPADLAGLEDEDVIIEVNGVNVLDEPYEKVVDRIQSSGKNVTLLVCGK

T10: X11β PDZ-GST fusion protein (Rattus norvegicus (Rat), UniProt O35431 560-745)
T10 construct: Order of GST and PDZ part and limits not seen in the excerpts
T10 chain: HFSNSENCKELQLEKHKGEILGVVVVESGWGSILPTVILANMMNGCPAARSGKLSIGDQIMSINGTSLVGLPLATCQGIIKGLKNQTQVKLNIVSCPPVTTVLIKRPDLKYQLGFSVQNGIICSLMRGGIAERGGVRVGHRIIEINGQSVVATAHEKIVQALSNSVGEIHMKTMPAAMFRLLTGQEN

T11: GST-MPP1 PDZ domain fusion protein (Homo sapiens (Human), UniProt Q00013 67-152)
T11 construct: also called p55; 55 Kd erythrocyte membrane protein; not shown: glutathione S-transferase encoded by vector pGEX-3X (Pharmacia)
T11 sequence: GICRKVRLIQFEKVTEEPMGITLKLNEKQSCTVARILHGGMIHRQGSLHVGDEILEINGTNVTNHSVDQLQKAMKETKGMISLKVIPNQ

T12: GST-LIM protein PDZ domain fusion protein (Human, UniProt Q96HC4 2-85)
T12 construct: also called Human LIM protein; not shown: glutathione S-transferase encoded by vector pGEX-3X (Pharmacia)
T12 sequence: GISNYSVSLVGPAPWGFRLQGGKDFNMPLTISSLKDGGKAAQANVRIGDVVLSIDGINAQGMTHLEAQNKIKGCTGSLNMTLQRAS

B1: BLR-1 C-terminal peptide AA45L, biotinylated (peptide)
peptide: Biotin-PSWRRSSLSESENATSLTTF
notes: also called CXCR5
B2: CD46 (Form 1) C-terminal peptide AA10L, biotinylated (peptide)
peptide: Biotin-KKGTYLTDETHREVKFTSL
B3: CD105 C-terminal peptide AA16L, biotinylated (peptide)
peptide: Biotin-STNHSIGSTQSTPCSTSSMA
notes: also called CD105 (endoglin)
B4: CDw137 (4-1BB ILA) C-terminal peptide AA21L (peptide)
peptide: Biotin-QEEDGCSCRFPEEEEGGCEL
modifications: cysteine pairing not given here
notes: Marked (S), sticky peptide with high background; also called CDw137 (4-1BB ILA) (S)
B5: V-gated Ca2+ channel C-terminal peptide AA46L (peptide)
peptide: Biotin-SSGGRARHSYHHPDQDHWC
notes: Marked (S), sticky peptide with high background; also called V-gated Ca2+ channel (S)

What follows are binders tested against T1, ConEn PDZ-GST fusion protein (assay: A/G assays).

Binding result, no binding:
B1
B2
B3

Molecular target: T2, GST-TAX-IP2 PDZ domain fusion protein
Assay: A/G assays

Binding result, no binding:
B1
B2
B3
B4
B5

These binders were tested against T3, GST-cytohesin binding protein PDZ … (assay: A/G assays).

Binding result, no binding:
B1
B2
B3
B4
B5

Each binder was assayed against T4, GST-TAX-IP40 PDZ domain fusion protein (assay: A/G assays).

Binding result, no binding:
B1
B2
B3
B4
B5

These binders were tested against T13, NSP PDZ-GST fusion protein (Homo sapiens (Human), UniProt Q92743 370-466) (assay: A/G assays).
T13 construct: The label NSP is not explained in the excerpts
T13 sequence (Q92743 other isoform, or with tags, fused parts or gaps limits assumed): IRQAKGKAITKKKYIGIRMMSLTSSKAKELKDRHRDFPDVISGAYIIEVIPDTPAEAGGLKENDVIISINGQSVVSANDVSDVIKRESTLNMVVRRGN

Binding result, no binding:
B1
B2
B3

The binders below were run against T5, K858 PDZ-GST fusion protein (assay: A/G assays).

Binding result, no binding:
B1
B2
B3
B4
B5

These binders were tested against T6, GST-RGS12 PDZ domain fusion protein (assay: A/G assays).

Binding result, no binding:
B1
B2
B3
B4
B5

Each binder was assayed against T7, GST-prIL16 fusion protein (PDZ domains …) (assay: A/G assays).

Binding result, no binding:
B1
B2
B3
B4
B5

Each binder was assayed against T8, GST-AF6 PDZ domain fusion protein (assay: A/G assays).

Binding result, no binding:
B1
B2
B3
B4
B5

Each binder was assayed against T14, GST-TIAM1 PDZ domain fusion protein (Homo sapiens (Human), UniProt Q13009 845-931) (assay: A/G assays).
T14 construct: also called TLAM1; T-lymphoma invasion and metastasis inducing protein 1; not shown: glutathione S-transferase encoded by vector pGEX-3X (Pharmacia)
T14 sequence (Q13009 other isoform, or with tags, fused parts or gaps): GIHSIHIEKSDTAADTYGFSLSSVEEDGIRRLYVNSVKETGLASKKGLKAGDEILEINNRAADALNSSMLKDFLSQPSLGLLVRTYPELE

Binding result, no binding:
B1
B2
B3
B4
B5

What follows are binders tested against T9, GST-PDZK1 fusion protein (PDZ domains …) (assay: A/G assays).

Binding result, no binding:
B2
B3
B4
B5

Molecular target: T10, X11β PDZ-GST fusion protein
Assay: A/G assays

Binding result, no binding:
B1
B2
B3
B4
B5

These binders were tested against T11, GST-MPP1 PDZ domain fusion protein (assay: A/G assays).

Binding result, no binding:
B1
B2
B3
B4
B5

Each binder was assayed against T12, GST-LIM protein PDZ domain fusion … (assay: A/G assays).

Binding result, no binding:
B1
B2
B4
B5
